Measurements as given in patent US20250289899A1 (Genmab, published 2025).

Columns and labels:
[1] = target: T1, recombinant His-tagged human FcγRIIb (human, UniProt P31994 43-217); assay: SPR (Biacore), His-tagged FcγRIIb captured on anti-His chip, antibody in solution, resonance units against antibody concentration
T1 construct: Bought; captured on anti-His chip; not shown: His tag
T1 sequence (looked up): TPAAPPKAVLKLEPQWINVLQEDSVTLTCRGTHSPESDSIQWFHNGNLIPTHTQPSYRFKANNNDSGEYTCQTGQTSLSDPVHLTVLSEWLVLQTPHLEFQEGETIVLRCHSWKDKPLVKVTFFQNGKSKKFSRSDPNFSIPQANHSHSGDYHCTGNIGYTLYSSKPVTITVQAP

[2] = target: T2, recombinant His-tagged human FcγRIIIa (176-Val [V]) (human, UniProt P08637 17-208); assay: SPR (Biacore), His-tagged FcγRIIIa-V captured on anti-His chip, antibody in solution, resonance units against antibody concentration
T2 construct: Bought; captured on anti-His chip; also called FcγRIIIa-V; not shown: His tag

[3] = target: T3, recombinant His-tagged human FcγRIIa (167-Arg [R]) (human, UniProt P12318 34-218, limits assumed); assay: SPR (Biacore), His-tagged FcγRIIa-R captured on anti-His chip, antibody in solution, resonance units against antibody concentration
T3 construct: Bought; captured on anti-His chip; also called FcγRIIa-R; not shown: His tag
T3 sequence (looked up): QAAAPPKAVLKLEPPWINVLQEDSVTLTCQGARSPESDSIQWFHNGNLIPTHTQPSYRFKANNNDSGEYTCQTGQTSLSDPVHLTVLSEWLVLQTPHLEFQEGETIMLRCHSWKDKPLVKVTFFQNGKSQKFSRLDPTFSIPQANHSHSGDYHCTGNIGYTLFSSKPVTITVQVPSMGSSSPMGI

[4] = target: T4, recombinant His-tagged human FcγRIIIa (176-Phe [F]) (human, UniProt P08637 17-208); assay: SPR (Biacore), His-tagged FcγRIIIa-F captured on anti-His chip, antibody in solution, resonance units against antibody concentration
T4 construct: Bought; captured on anti-His chip; also called FcγRIIIa-F; not shown: His tag

[5] = target: T5, recombinant His-tagged human FcγRIIa (167-His [H]) (human, UniProt P12318 34-218, limits assumed); assay: SPR (Biacore), His-tagged FcγRIIa-H captured on anti-His chip, antibody in solution, resonance units against antibody concentration
T5 construct: Bought; captured on anti-His chip; also called FcγRIIa-H; not shown: His tag
T5 sequence (looked up): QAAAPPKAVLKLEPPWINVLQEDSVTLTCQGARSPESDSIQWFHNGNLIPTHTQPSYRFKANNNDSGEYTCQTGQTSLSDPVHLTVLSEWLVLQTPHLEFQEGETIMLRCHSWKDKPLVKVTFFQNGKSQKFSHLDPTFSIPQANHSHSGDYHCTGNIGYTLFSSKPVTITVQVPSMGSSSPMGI

[6] = target: T6, human CD27, full length, on cells (T cells, transfected HEK293F cells, Daudi cells, NFκB-luc2/CD27 Jurkat … (human, UniProt P26842 20-240)); assay: flow cytometry on CD4+ T cells in human PBMC, FITC goat anti-human IgG F(ab')2, median FITC
T6 construct: Residues 1-19 are stated to be the signal peptide; also called TNFRSF7
T6 sequence: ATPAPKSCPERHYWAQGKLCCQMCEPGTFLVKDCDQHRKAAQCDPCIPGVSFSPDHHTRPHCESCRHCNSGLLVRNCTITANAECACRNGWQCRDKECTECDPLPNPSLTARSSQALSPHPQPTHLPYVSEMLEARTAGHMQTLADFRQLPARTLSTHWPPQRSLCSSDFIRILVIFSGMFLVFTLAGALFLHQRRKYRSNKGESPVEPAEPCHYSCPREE
Description: (§1) Binding of IgG1-CD27-A-P329R-E345R to CD27 on human healthy donor T cells was characterized in more detail using flow cytometry. Anti-HIV gp120 antibody variant IgG1-b12-P329R-E345R was used as non-binding control antibody (ctrl). Human PBMCs were isolated from buffy coats obtained from human healthy donors. PBMC (1×10⁵ cells/well) in FACS buffer were added to polystyrene 96-well round-bottom plates (Greiner bio-one, Cat #650101) and pelleted by centrifugation at 300×g for 3 min at 4° C. The cells were resuspended in 50 μL/well serial antibody dilutions in FACS buffer (range 0.0015 to 10 μg/mL in 3-fold dilution steps) and incubated for 30 min at 4° C. Cells were pelleted, washed twice with FACS buffer and incubated in 50 μL/well with FITC-conjugated secondary antibody (FITC AffiniPure F(ab′)₂ fragment goat anti-human IgG, F(ab′)₂ fragment specific, Jackson ImmunoResearch, Cat #109-096-097, diluted 1:100) for 30 min at 4° C. in the dark. […] The samples were measured by flow cytometry on an LSRFortessa (BD) flow cytometer and analyzed using FlowJo software. Binding curves were analyzed using non-linear regression (sigmoidal dose-response with variable slope) using GraphPad Prism 8 software.

[7] = target: T6, human CD27, full length, on cells (T …); assay: flow cytometry on CD8+ T cells in human PBMC, FITC goat anti-human IgG F(ab')2, median FITC
Description: as §1

T4 sequence (P08637 17-208 limits assumed): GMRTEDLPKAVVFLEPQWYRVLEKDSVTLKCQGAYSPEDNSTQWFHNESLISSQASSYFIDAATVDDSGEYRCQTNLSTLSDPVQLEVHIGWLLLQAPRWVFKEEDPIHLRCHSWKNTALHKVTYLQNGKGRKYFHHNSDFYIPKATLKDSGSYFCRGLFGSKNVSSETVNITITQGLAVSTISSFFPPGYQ
T2 sequence (P08637 17-208 F176V limits assumed): as the sequence (P08637 17-208 limits assumed) above, with F160V counted along it

binding result [1]: no binding (tested: 10,000 nM) | binding result [2]: no binding (tested: 10,000 nM) | binding result [3]: no binding (tested: 10,000 nM) | binding result [4]: no binding (tested: 10,000 nM) | binding result [5]: no binding (tested: 10,000 nM) | EC50 (read off the curve) [6]: ~0.03 µg/mL | EC50 (read off the curve) [7]: ~0.03 µg/mL
B1: IgG1-CD27-A-P329R-E345R (antibody)
heavy: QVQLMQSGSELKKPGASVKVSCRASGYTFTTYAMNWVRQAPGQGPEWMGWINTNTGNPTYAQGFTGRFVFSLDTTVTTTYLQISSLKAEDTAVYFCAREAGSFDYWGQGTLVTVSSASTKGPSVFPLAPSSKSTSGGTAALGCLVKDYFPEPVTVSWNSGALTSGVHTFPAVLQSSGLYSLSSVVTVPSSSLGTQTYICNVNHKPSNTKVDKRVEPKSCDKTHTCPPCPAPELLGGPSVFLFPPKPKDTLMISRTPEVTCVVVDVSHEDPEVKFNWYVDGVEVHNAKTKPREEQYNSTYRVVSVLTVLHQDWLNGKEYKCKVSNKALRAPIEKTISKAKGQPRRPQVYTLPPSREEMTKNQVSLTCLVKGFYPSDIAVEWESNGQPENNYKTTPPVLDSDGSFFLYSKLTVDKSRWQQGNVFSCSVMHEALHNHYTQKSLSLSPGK
light: QSALTQPASVSGSPGQSITISCTGTSSDVYYYNYVSWYQQHPGRAPKLVIYDVSNRPSGVSNRFSGSKSGNTASLTISGLRAEDEADYYCSSYTVNRVWVFGGGTKLTVLGQPKAAPSVTLFPPSSEELQANKATLVCLISDFYPGAVTVAWKADSSPVKAGVETTTPSKQSNNKYAASSYLSLTPEQWKSHRSYSCQVTHEGSTVEKTVAPTECS
notes: also called IgG1-CD27-A-E345R-P329R
